System: MS2 coat protein
Assay: apparent KD of MS2 coat protein; higher = weaker reporter binding
Conditions: Eterna round: R107
Description: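 RNA-MaP round R107: designed RNA switches with theophylline, tryptophan, arginine or FMN aptamers are transcribed on-chip within common flanks. They are titrated with SNAP-549-labelled MS2 coat protein in RNA-MaP buffer (100 mM Tris pH 7.5, 80 mM KCl, 4 mM MgCl2), without ligand or with the indicated ligand. Median apparent KD per design.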

[1] = input ligand: theophylline 20 uM
[2] = input ligand: theophylline 2 mM
[3] = input ligand: tryptophan 2.4 mM

Sequence	apparent KD of MS2 coat protein (input ligand: arginine 13.2 mM) [nM]	apparent KD of MS2 coat protein (input ligand: none) [nM]	apparent KD of MS2 coat protein [1] [nM]	apparent KD of MS2 coat protein [2] [nM]	apparent KD of MS2 coat protein [3] [nM]
AUAACAUGAGGAUCACCCAUGUAAGCUGAAGGAGCGGACGAAAGUCCAGGUAGGUCGCAGCGCUCCUUCUGGUGAUCUGAAGGAG [(M1)-(M2)-(Arg1)-(Arg2)-(A)'-(M)'-(A)''_Design3]	103	151	154	87.8	138
AUAACAUGAGGAUCACCCAUGUAUUGGUAACGAGGACCGGUACGGCCGCCACUCGUAUUUUGGUGGUAUUAUAUAUAUAUGAUUA [JR_SSTryptoA_Sub017]	24.1		28.9	20.6	
AUAACGAGUGGUGGAUAAUCCUCAUGUAAACGAGGACCGGUACGGCCGCCACUCGAUAACAUGAGGAUCACCCAUGUAAUAAUAA [|T'-M'-Trp-Ms2|_Design17]	25.9		20.8	21.3	
AUAAUUGGGUUAAUUAGUUUUAGGUCCAGUCGAGGACCGGUACGGCCGCCACUCGUUCCGAGAUACAUGAGGAUCACCCAUGUUA [JR_ExcTryptoA_Sub015]	17.3		34.5	31	
AUACAUGAGGAUCACCCAUGUAUAGUUGAAGGAGCGACCAGAGGGUCAGGUAGGUCGCAGCACAUGAGGAUCACCCAUGUAUUUU [#1 Exclusion - Arginine A Attempt #14 (Inspired by Pi)]	32.6	38	40.3	35.1	27.3
AUACAUGAGGAUCACCCAUGUCAUUCAGAAGGAGCGUCAUUUUAGACAGGUAGGUCGCUGAUAUUAUCUUUAUACUUUAUGUUUA [JR_ExcArginiA_Sub023]	19.1	18.3	27.3	18.2	19.9
AUACAUGAGGAUCACCCAUGUUACACUGAAGGAGCGACAUGUUUGUCAGGUAGGUCGCAGUGAAGUUUAAUAAAUAGUUGAUCUU [#07 Same State - Arginine A]	37.6	57	56.8	62.6	37
AUACAUGAGGCGGCCGCCACUUUACAUGAGGAUCAACAUGAGGAUCACCCAUGUUACAUGUGGAUAAGGACCGGGCCUCAUGUAU [Same State Tryptophan B 2]	51.9	180	178	313	91.2
AUACCUAAUGUUACAUUUUCCUUUUCAGAUACCAGACUUUACGUUGUCCCUUGGCAGCUGUAUCACAUGAGGAUCACCCAUGUUG [JR_SSTheophyA_Sub009]	17.3		20.7		17
AUACGUAACAGAAGGAGCGCACCGACAUGAGGAUCACCCAUGUGGGAUGGGACUCUUUUGGUGCAGGUAGGUCGCUGUCACGCAU [Beatattian]	23.7	41.4	99.4	61.2	40.3
AUAUCAUAGAGUGAUACCAGACUACAUGAGGAUCACCCAUGUGACAUUUAAAUAUCAUUUGUCCCUUGGCAGCACAUUAAGUACA [JR_Nu_ExcTheophyB_Sub020]	50.6		79.8		61.6
AUAUUAAUCGGAAGGAGCGGUACAUGAGGAUCACCCAUGUGCUAAGCUAGCAGAUCCCGUUACCAGGUAGGUCGCCGAGUUAUGA [Titeonra]	35.6	24	30.9	29.5	23.4
AUAUUAGACCUGGAUACCAGCGACAUGAGGAUCACCCAUGUAUGUGCAUCAGCCAUGAUAUGCCCUUGGCAGCCACCGAGGUCGU [YYTMULLIN]	14.1		17.9		15.1
AUCAUGGCCAUCGAUACCAGCUACAUGAGGAUCACCCAUGUAAACGGCCCGGUGAGAUGUAGCCCUUGGCAGCGAAGGGUCAAGG [Ratimatiqu]	12.4	16.5	23.1	120	17
AUCCAUAGCCGAAGGAGCGCAGUAGGAUGACAUGAGGAUCACCCAUGUGUGUGAUGUGGAUUGCAGGUAGGUCGCGGAGUGGGAU [Exclusion - Arginine B (Freestyle 6)]	35	58.7	135	63	47.2
AUCGUACCUGAUGAUACCAGCAAUUGCUCGUAACAUGAGGAUCACCCAUGUGAUCAGUGAUGCCCUUGGCAGCAUGAUCGGUGCA [Same State - Theophylline B (Freestyle 19)]	52.8		183		248
AUCGUACCUGGUGAUACCAGCAAUUGCUCGUGACAUGAGGAUCACCCAUGUGGCCAGUGAUGCCCUUGGCAGCAUGGUCGGUGCA [Same State - Theophylline B (Freestyle 24)]	72.4		167		122
AUGCAACAUGAGGAUCACCCAUGUGGUGAUACCAGUCGACAAGUAGACCCUUGGCAGCACAGCCGAUAUCGAGAGAGAUUUUUGG [theeternabot_sameState_MS2_Theo_A_23]	64.4		476		824

From the supplement of paper PMC9170038
